These results are taken from patent US20200354449A1 (NBE THERAPEUTICS, published 2020).

Residue numbers refer to the chain shown, from its start.

For test [1], the target named is T1, mouse ROR2-TwinStrep (mouse, UniProt Q9Z138 34-403).
T1 construct: also called mROR2; murine ROR2; not shown: TwinStrep tag
Description: ELISA, panel 'mouse ROR2' (mouse ROR2-TwinStrep 2 µg/mL coated), 4-fold dilutions of purified antibody from 2000 ng/mL, HRP anti-human IgG, OD 490 nm. How it is done:
(§1) Binding of antibodies to hROR2, mouse ROR2 (mROR2) and cynomolgus ROR2 (cROR2) was evaluated in an ELISA-based assay. For this, ELISA plates were coated with 50 μL of 2 μg/ml, in sodium bicarbonate coating buffer (0.1M Na₂CO₃, 0.1M NaHCO₃, pH 9.6), of: (a) an anti-human Fc (Jackson Immunoresearch, 109-006-098), (b) hROR2-TwinStrep, (c) cynomolgus ROR2-TwinStrep or (d) mouse ROR2-TwinStrep. Following 1-2-days incubation at 4° C., plates were washed with PBS supplemented with 0.05% (v/v) of Tween 20 and blocked with 150 μL of PBS supplemented with 0.05% (v/v) of Tween 20 and 3% of bovine serum albumin (BSA). Thereafter, 3-fold or 4-fold dilutions of purified antibodies starting at 0.5 or 2 μg/ml, respectively, in PBS supplemented with 1% (w/v) bovine serum albumin (BSA) and 0.05% (v/v) of Tween 20 were added. Following 1 h incubation at 37° C., plates were washed with PBS supplemented with 0.05% (v/v) of Tween 20 prior to addition of HRP-conjugated anti-human IgG (Jackson Immunoresearch, 109-036-008). Following further plate washing, plates were developed with 50 μL of Sigmafast OPD Tablet set (Sigma, P9187) and the reaction stopped by addition of 2M sulfuric acid. Plates were read on an ELISA plate reader (OD 490).

The target in test [2] is T1, mouse ROR2-TwinStrep. Description: ELISA, panel 'Coating: Mouse ROR2' (mouse ROR2-TwinStrep 2 µg/mL), 3-fold dilution series of antibody, HRP anti-human IgG, OD 490 nm. How it is done:
as §1

T1 sequence (Q9Z138 34-403 V372M): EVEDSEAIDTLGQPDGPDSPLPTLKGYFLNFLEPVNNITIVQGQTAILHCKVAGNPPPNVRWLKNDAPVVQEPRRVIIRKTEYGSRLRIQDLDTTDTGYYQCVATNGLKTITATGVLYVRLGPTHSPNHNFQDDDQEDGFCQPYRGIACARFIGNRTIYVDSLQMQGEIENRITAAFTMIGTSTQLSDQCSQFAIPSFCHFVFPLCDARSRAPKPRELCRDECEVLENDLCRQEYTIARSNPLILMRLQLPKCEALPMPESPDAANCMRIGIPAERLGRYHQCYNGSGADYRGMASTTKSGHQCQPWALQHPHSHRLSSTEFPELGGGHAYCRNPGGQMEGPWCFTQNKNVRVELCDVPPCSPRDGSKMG

B1: GK-22G12 (mAb418) (antibody, human IgG1)
heavy: not shown
light: DIVMTQSPSSLSASVGDRVTITCRASQGISNYLAWYQQKPGKVPKLLIYAASTLQSGVPSRFSGSGSGTDFTLTISSLQPEDVSTYYCQKHNRAPWTFGQGTKLEIKRTVAAPSVFIFPPSDEQLKSGTASVVCLLNNFYPREAKVQWKVDNALQSGNSQESVTEQDSKDSTYSLSSTLTLSKADYEKHKVYACEVTHQGLSSPVTKSFNRGECGGGGGLPETG
notes: Human IgG1/kappa; The light chain tag is printed G5LPETG, perhaps a misprint of G5SLPETG; also called MK-22G12; not shown: TwinStrep tag
Turning to B1, the binding result with mouse ROR2-TwinStrep [1] is given as “no binding (tested: 2000 ng/mL)”.

B2: GK-5A1 (mAb271) (antibody, human IgG1)
heavy: not shown
light: EIVLTQSPSTLSASVGDRVTITCRASQSISSWLAWYQQKPGKAPKLLIYKASSLESGVPSRFSGSGSGTEFTLTISSLQPDDFATYYCQQYNSYWTFGQGTKVDIKRTVAAPSVFIFPPSDEQLKSGTASVVCLLNNFYPREAKVQWKVDNALQSGNSQESVTEQDSKDSTYSLSSTLTLSKADYEKHKVYACEVTHQGLSSPVTKSFNRGECGGGGGSLPETG
notes: Human IgG1/kappa; not shown: Strep tag
Take B2: the binding result with mouse ROR2-TwinStrep [2] was “binds”.

B3: GK-1E5 (mAb270) (antibody, human IgG1)
heavy: not shown
light: B2 light with E1D, V3Q, S93N, D104E
notes: as for B2
As to B3, the binding result with mouse ROR2-TwinStrep [2] is reported as “no binding”.

B4: MK-3B12 (mAb272) (antibody, human IgG1)
heavy: not shown
light: B2 light with E1D, L4M, S93N, D104E
notes: as for B2
B4: the binding result in the test with mouse ROR2-TwinStrep [2] is “no binding”.

B5: GK-2G8 (antibody, human IgG1)
heavy: not shown
light: B2 light with L4M, S93N
notes: Human IgG1/kappa; the molecule is assigned by the clone name; not shown: Strep tag
In the case of B5, in the test with mouse ROR2-TwinStrep [2], the binding result was “no binding”.

B6: GK-5G12 (antibody, human IgG1)
heavy: not shown
light: EIVLTQSPSSLSASVGDRVTITCRASQGISNYLAWYQQKPGKVPKLLIYAASTLQSGVPSRFSGSGSGTDFTLTISSLQPEDVATYYCQKYNSAPYTFGQGTKLEIKRTVAAPSVFIFPPSDEQLKSGTASVVCLLNNFYPREAKVQWKVDNALQSGNSQESVTEQDSKDSTYSLSSTLTLSKADYEKHKVYACEVTHQGLSSPVTKSFNRGECGGGGGSLPETG
notes: as for B5
Consider B6, for which the binding result with mouse ROR2-TwinStrep [2] is “no binding”.

B7: GK-21D3 (mAb399; mAb417) (antibody, human IgG1)
heavy: not shown
light: B6 light with E1D, V3Q, V15I, A84S, Y96W, L104V, E105D
notes: also called GK-21D3 (mAb417); MK-21D3; not shown: TwinStrep tag
With B7, the binding result with mouse ROR2-TwinStrep [1] was “no binding (tested: 2000 ng/mL)”.

B8: GK-6B10 (antibody, human IgG1)
heavy: not shown
light: DIVMTQSPSTLSASVGDRVTITCRASQSIDNWLAWYQQKPGKAPKVLIYKASSLESGVPSRFSGSGSGTEFTLTISSLQPDDFATYYCQQYNSYSYTFGQGTKLEIKRTVAAPSVFIFPPSDEQLKSGTASVVCLLNNFYPREAKVQWKVDNALQSGNSQESVTEQDSKDSTYSLSSTLTLSKADYEKHKVYACEVTHQGLSSPVTKSFNRGECGGGGGSLPETG
notes: as for B5
For the molecule B8, the binding result in the test with mouse ROR2-TwinStrep [2] is “no binding”.

B9: MK-7C3 (antibody, human IgG1)
heavy: not shown
light: B8 light with D1A, V3R, S28T, D30S, Y36F, T85S, K103R
notes: as for B5
In the case of B9, the binding result in the test with mouse ROR2-TwinStrep [2] is reported as “no binding”.
